According to paper PMC11500988:

Biological target: human FcγRIIIa-V158 (CD16a, V158 allotype) (human) (UniProt P08637)

EC50 of the in vitro ADCC assay (luminescence, Bio-Glo reagent; BT-474 target cells, Jurkat cells): 0.017 µg/mL
Substance: P-TMab (trastuzumab produced by the glycoengineered rice cell line PhytoRice, line PHYTO101) (antibody)
